The chains are these.
B1: MFF (parent)
chain: MAEISRIQYEMEYTEGISQRMRVP
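Further: lentivirally expressed fusions sorted by FACS into six bins by GFP to DsRed ratio, PSI derived from sequencing read proportions per bin multiplied by bin number.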

The data set covers variants of B1. As to the kind of experiment: protein stability index of a GFP-peptide fusion (GPS, HEK-293T) (PSI 1-6); higher = more stable. The following applies: c terminus: a fixed tail appended.
For the variant MARISRIQYEMEYTEGISQRMRVP, the protein stability index was determined as 2.39.
Turning to MAAISRIQYEMEYTEGISQRMRVP, the protein stability index came to 1.85.
Under MNEISRIQYEMEYTEGISQRMRVP stands 3.09; under MGEISRIQYEMEYTEGISQRMRVP, 3.03; under MLEISRIQYEMEYTEGISQRMRVP, 1.86.
Consider MDEISRIQYEMEYTEGISQRMRVP, for which the protein stability index turned out to be 2.83.
Then MTEISRIQYEMEYTEGISQRMRVP, with 2.74; and MPEISRIQYEMEYTEGISQRMRVP, with 3.33.
Then MWEISRIQYEMEYTEGISQRMRVP, with 1.51; and MFEISRIQYEMEYTEGISQRMRVP, with 1.58; and MHEISRIQYEMEYTEGISQRMRVP, with 2.45.
Then MMEISRIQYEMEYTEGISQRMRVP, with 2.03; and MKEISRIQYEMEYTEGISQRMRVP, with 2.77; and MQEISRIQYEMEYTEGISQRMRVP, with 2.76.
For the variant MCEISRIQYEMEYTEGISQRMRVP, the protein stability index is 2.25.
Then MSEISRIQYEMEYTEGISQRMRVP, with 2.5; and MEEISRIQYEMEYTEGISQRMRVP, with 3.33.
MYEISRIQYEMEYTEGISQRMRVP: the protein stability index amounted to 1.95.
Under MVEISRIQYEMEYTEGISQRMRVP stands 1.96; under MREISRIQYEMEYTEGISQRMRVP, 2.54.
Then MIEISRIQYEMEYTEGISQRMRVP, with 2.17; and TAEISRIQYEMEYTEGISQRMRVP, with 3.28; and WAEISRIQYEMEYTEGISQRMRVP, with 2.35.
Turning to KAEISRIQYEMEYTEGISQRMRVP, the protein stability index is 2.97.
On to AAEISRIQYEMEYTEGISQRMRVP, for which the protein stability index turned out to be 2.92.
Then EAEISRIQYEMEYTEGISQRMRVP, with 4.04; and YAEISRIQYEMEYTEGISQRMRVP, with 1.9; and VAEISRIQYEMEYTEGISQRMRVP, with 2.85.
Consider RAEISRIQYEMEYTEGISQRMRVP, for which the protein stability index came to 3.1.
Under QAEISRIQYEMEYTEGISQRMRVP stands 3.56; under PAEISRIQYEMEYTEGISQRMRVP, 3.45.
In the case of DAEISRIQYEMEYTEGISQRMRVP, the protein stability index amounted to 3.56.
Regarding SAEISRIQYEMEYTEGISQRMRVP, the protein stability index stood at 3.01.
Then NAEISRIQYEMEYTEGISQRMRVP, with 3.16; and CAEISRIQYEMEYTEGISQRMRVP, with 1.85.
Then GAEISRIQYEMEYTEGISQRMRVP, with 3.14; and HAEISRIQYEMEYTEGISQRMRVP, with 2.92; and FAEISRIQYEMEYTEGISQRMRVP, with 1.97.
With LAEISRIQYEMEYTEGISQRMRVP, the protein stability index amounted to 2.55.
Then IAEISRIQYEMEYTEGISQRMRVP, with 2.36; and MAEISYIQYEMEYTEGISQRMRVP, with 1.53.
Then MAEISDIQYEMEYTEGISQRMRVP, with 3.28; and MAEISIIQYEMEYTEGISQRMRVP, with 1.63; and MAEISSIQYEMEYTEGISQRMRVP, with 3.37.
As to MAEISPIQYEMEYTEGISQRMRVP, the protein stability index is 3.36.
Consider MAEISQIQYEMEYTEGISQRMRVP, for which the protein stability index amounted to 3.34.
Then MAEISTIQYEMEYTEGISQRMRVP, with 2.93; and MAEISNIQYEMEYTEGISQRMRVP, with 3.27; and MAEISAIQYEMEYTEGISQRMRVP, with 3.16.
Then MAEISFIQYEMEYTEGISQRMRVP, with 2.06; and MAEISVIQYEMEYTEGISQRMRVP, with 2.03; and MAEISMIQYEMEYTEGISQRMRVP, with 2.41.
Under MAEISEIQYEMEYTEGISQRMRVP stands 3.42.
Take MAEISLIQYEMEYTEGISQRMRVP: the protein stability index stood at 1.71.
Under MAEISWIQYEMEYTEGISQRMRVP stands 1.95.
On to MAEISCIQYEMEYTEGISQRMRVP, for which the protein stability index was 2.97.
Take MAEISKIQYEMEYTEGISQRMRVP: the protein stability index stood at 3.15.
Under MAEISHIQYEMEYTEGISQRMRVP stands 3.
MAEISGIQYEMEYTEGISQRMRVP: the protein stability index was determined as 3.36.
Turning to MAEISRAQYEMEYTEGISQRMRVP, the protein stability index turned out to be 3.22.
Then MAEISRQQYEMEYTEGISQRMRVP, with 3.43.
Then MAEISRSQYEMEYTEGISQRMRVP, with 3.51.
Under MAEISRPQYEMEYTEGISQRMRVP stands 3.37.
Regarding MAEISRHQYEMEYTEGISQRMRVP, the protein stability index was determined as 3.
Under MAEISRMQYEMEYTEGISQRMRVP stands 2.93; under MAEISRRQYEMEYTEGISQRMRVP, 3.33; under MAEISRCQYEMEYTEGISQRMRVP, 2.56.
Under MAEISRDQYEMEYTEGISQRMRVP stands 3.8; under MAEISRKQYEMEYTEGISQRMRVP, 3.34; under MAEISRNQYEMEYTEGISQRMRVP, 3.6.
Under MAEISRTQYEMEYTEGISQRMRVP stands 3.4; under MAEISRGQYEMEYTEGISQRMRVP, 3.03; under MAEISRVQYEMEYTEGISQRMRVP, 2.64.
In the case of MAEISRLQYEMEYTEGISQRMRVP, the protein stability index was found to be 2.29.
Regarding MAEISREQYEMEYTEGISQRMRVP, the protein stability index is 4.11.
Under MAEISRFQYEMEYTEGISQRMRVP stands 2.69; under MAEIERIQYEMEYTEGISQRMRVP, 2.95.
Then MAEIFRIQYEMEYTEGISQRMRVP, with 1.71; and MAEIQRIQYEMEYTEGISQRMRVP, with 2.36.
Then MAEIPRIQYEMEYTEGISQRMRVP, with 3.52; and MAEICRIQYEMEYTEGISQRMRVP, with 1.88.
As for MAEIKRIQYEMEYTEGISQRMRVP, the protein stability index was 2.17.
Under MAEILRIQYEMEYTEGISQRMRVP stands 2.17; under MAEIYRIQYEMEYTEGISQRMRVP, 1.6.
Under MAEIRRIQYEMEYTEGISQRMRVP stands 2.75.
Under MAEIGRIQYEMEYTEGISQRMRVP stands 2.27; under MAEIVRIQYEMEYTEGISQRMRVP, 2.02.
In the case of MAEIIRIQYEMEYTEGISQRMRVP, the protein stability index was 2.11.
For the variant MAEIARIQYEMEYTEGISQRMRVP, the protein stability index was found to be 1.72.
Under MAEIMRIQYEMEYTEGISQRMRVP stands 1.34; under MAEIWRIQYEMEYTEGISQRMRVP, 2.46.
Then MAEIDRIQYEMEYTEGISQRMRVP, with 3.39; and MAEIHRIQYEMEYTEGISQRMRVP, with 2.47; and MAEINRIQYEMEYTEGISQRMRVP, with 2.53.
Under MAEITRIQYEMEYTEGISQRMRVP stands 2.02.

The values are drawn from the supplement of paper PMC10567573.
